Data as given in patent US20250019463A1 (UCB, published 2025).
Blank lines part the entries; values can stand above or below the binder they belong to.

Key:
[1] = target: T1, human transglutaminase type 2 (TG2) (human, UniProt P21980 2-687); assay: cell-based or functional assay
T1 sequence: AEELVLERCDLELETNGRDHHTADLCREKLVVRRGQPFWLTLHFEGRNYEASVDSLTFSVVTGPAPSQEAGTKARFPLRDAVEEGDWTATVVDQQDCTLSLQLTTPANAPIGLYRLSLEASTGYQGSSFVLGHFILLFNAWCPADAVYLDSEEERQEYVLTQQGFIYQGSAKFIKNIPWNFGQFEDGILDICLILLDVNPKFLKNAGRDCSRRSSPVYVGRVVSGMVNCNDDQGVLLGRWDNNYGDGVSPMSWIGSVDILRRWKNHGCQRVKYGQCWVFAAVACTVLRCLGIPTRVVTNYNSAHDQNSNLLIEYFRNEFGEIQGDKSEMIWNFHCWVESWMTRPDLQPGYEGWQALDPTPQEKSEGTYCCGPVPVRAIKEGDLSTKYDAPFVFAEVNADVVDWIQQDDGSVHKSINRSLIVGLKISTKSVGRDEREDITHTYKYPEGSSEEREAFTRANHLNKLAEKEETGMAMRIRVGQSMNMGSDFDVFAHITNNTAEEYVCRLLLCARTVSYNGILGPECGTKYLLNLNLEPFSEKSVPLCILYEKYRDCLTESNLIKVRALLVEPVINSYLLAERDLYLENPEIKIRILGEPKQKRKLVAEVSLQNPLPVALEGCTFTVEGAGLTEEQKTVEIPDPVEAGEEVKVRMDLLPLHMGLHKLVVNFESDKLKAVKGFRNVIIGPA

rabbit TG2 = rabbit TG2 (rabbit); assay: cell-based or functional assay

IC50 against human TG2 (assay not given) [1]: 0.25 nM | IC50 against rabbit TG2 (assay not given) (rabbit TG2): 103 nM
B1: Zampilimab (antibody, V domains shown)
VH: EVQLLESGGGLVQPGGSLRLSCAASGFTLSTHAMSWVRQAPGKGLEWVATISSGGRSTYYPDSVKGRFTISRDNSKNTLYLQMNSLRAEDTAVYFCARLISTYWGQGTLVTVSS
VL: DITMTQSPSSLSASVGDRVTITCKASQDINSYLTWFQQKPGKAPKILIYLVNRLVDGVPSRFSGSGSGQDYALTISSLQPEDFATYYCLQYDDFPYTFGQGTKVEIK

IC50 against human TG2 (assay not given) [1]: 0.3 nM | IC50 against rabbit TG2 (assay not given) (rabbit TG2): 8 nM
B2: rbBB7 (antibody, V domains shown)
VH: EVQLLESGGRLVTPGGSLTLTCAASGIIFSSSAMSWVRQAPGKGLEWVATISSGGRSTYYPDSVKGRFTVSRDSSKNTLYLQMNSLRAEDTAVYYCAKLISPYWGQGTLVTVSS
VL: AIKMTQTPSSVSAAVGGTVTISCKASQDINSYLTWFQQKPGQPPKTLIYLTNRLMDGVPSRFSGSGSGQEFLLTISGLECDDAATYYCLQYVDFPYTFGGGTKVVVK
